Assay [1] concerns the target BRPF2 bromodomain, wild-type, N-terminal His6-tagged (UniProt O95696). Description: pull-down.
The target of assay [2] is BRPF2 bromodomain F648A mutant (UniProt O95696). Description: pull-down.
For assay [3], the target named is BRPF2 bromodomain, wild-type, N-terminal His6-tagged (UniProt O95696). Description: ITC.
BRPF2 bromodomain, wild-type, N-terminal His6-tagged, sequence (O95696 556-688): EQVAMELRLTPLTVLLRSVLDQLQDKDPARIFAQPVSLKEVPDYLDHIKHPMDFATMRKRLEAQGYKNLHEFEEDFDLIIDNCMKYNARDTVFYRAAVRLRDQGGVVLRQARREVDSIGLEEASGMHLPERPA

BRPF2 bromodomain F648A mutant, sequence (O95696 556-688 F648A): as the sequence (O95696 556-688) above, with F93A counted along it

“endogenous hyperacetylated histone H4 bearing the K5ac mark (from UniProt P62805 1-103) (natural protein)” gave a fold reduction of binding with BAY-299 against without inhibitor in assay [1] of 3 fold. In addition, the fold reduction of binding against the wild type in assay [2] amounted to 1.5 fold.
“histone H2AK5ac (1-12) peptide (from UniProt P0C0S8 2-13)” had an equilibrium dissociation constant (Kd) in assay [3] of 55.2 µM. In other words, the double-digit micromolar range.
The same measure, in the same setting: for “histone H4Kac4 (H4K5/8/12/16) (1-20) peptide (from UniProt P62805 2-21)” the value was 12.2 µM.

The term Kd denotes the concentration at which binding is half-saturated. Low values mean a tighter complex, high ones a looser complex.

The values above are taken from publication doi:10.1101/2022.02.20.481182.
